According to article PMC2967368:

Tests used:
[1] = target: Survivin (UniProt O15392); assay: biotinylated peptide pull-down, immunoblot; details: reference: unmodified H3(1-21) peptide; sites T3
[2] = target: Survivin (UniProt O15392); assay: peptide pull-down, Coomassie staining; details: reference: unmodified H3 peptide; sites T3
[3] = target: Histone-H3 (1-21) peptide phosphorylated at Thr-3 (UniProt P68431); assay: fluorescence polarisation

“Histone-H3 1-21 (from UniProt P68431) H3T3ph peptide” was tested, and the “binding against the reference” value [1] was “stronger”.

In the case of “Histone-H3 (from UniProt P68431) H3T3ph peptide”, the “binding against the reference” value [2] is reported as “stronger”.

“xISD complex containing INCENP(1-58), Survivin and Dasra-A (from UniProt Q4V7H8 1-296)” was tested, and the fold enhancement of binding by T3ph against unmodified H3 [3] was 20 fold.
